This assay deals with T1, human α1-antitrypsin (human, UniProt P01009 25-418).
T1 construct: Secreted recombinant human α1AT found in culture supernatant; also called α1AT; human α1AT
Description: supernatant incubated with active NE (3, 30, 300 nM; 30 min, 23°), then immunoprecipitation, SDS-PAGE and autoradiography. The procedure:
(B) At various times after infection, the lungs were minced, incubated for 1 hour in methionine-free LHC-8 medium (37°), and then incubated for 24 hours in medium with (³⁵S)-methionine (1 ml medium/150 mg tissue; 500 μCi/ml). The supernatant was then evaluated by immunoprecipitation with a rabbit antibody to human α1AT (Boehringer Mannheim), SDS-polyacrylamide gels, and autoradiography as in FIG. 2E. Trichloroacetic acid-precipitable radioactivity was evaluated by immunoprecipitation (for lanes 10-15, 2×10⁶ cpm; for lanes 16-18, 1×10⁶ cpm). Autoradiogram exposures for lanes 10 to 15 were identical; lanes 16-18 were evaluated at a different time, and the exposures adjusted such that the intensity of the α1AT band without NE was similar to lane 13. The ability of the synthesized human α1AT to inhibit its natural substrate, NE, was evaluated by incubating the supernatant with various dilutions of active NE (30 min, 23°) before immmunoprecipitation.
The de novo expression of the human α1AT protein lasted at least 1 week (lane 15) and the secreted human α1AT was functional, as shown by its ability to form a complex with its natural target, human neutrophil elastase (NE) (lanes 16-18).

T1 sequence (P01009 25-418 limits assumed): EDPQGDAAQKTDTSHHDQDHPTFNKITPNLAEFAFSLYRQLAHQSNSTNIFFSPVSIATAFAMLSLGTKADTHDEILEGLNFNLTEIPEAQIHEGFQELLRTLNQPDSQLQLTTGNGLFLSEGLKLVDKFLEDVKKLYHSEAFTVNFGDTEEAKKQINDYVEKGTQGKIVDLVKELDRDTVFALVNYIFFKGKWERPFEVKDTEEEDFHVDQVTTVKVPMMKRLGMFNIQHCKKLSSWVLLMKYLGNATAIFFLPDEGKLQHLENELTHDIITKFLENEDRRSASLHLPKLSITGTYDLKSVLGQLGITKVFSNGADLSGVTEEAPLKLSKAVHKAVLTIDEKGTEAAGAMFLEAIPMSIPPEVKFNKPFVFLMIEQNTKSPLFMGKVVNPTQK

B1: human neutrophil elastase (enzyme, UniProt P08246 30-247, looked up)
chain: IVGGRRARPHAWPFMVSLQLRGGHFCGATLIAPNFVMSAAHCVANVNVRAVRVVLGAHNLSRREPTRQVFAVQRIFENGYDPVNLLNDIVILQLNGSATINANVQVAQLPAQGRRLGNGVQCLAMGWGLLGRNRGIASVLQELNVTVVTSLCRRSNVCTLVRGRQAGVCFGDSGSPLVCNGLIHGIASFVRGGCASGLYPDAFAPVAQFVNWIDSIIQ
notes: Described as active NE
For B1, the binding result is “binds”.

Values taken from patent US20020164304A1 (TRANSGENE, published 2002).
